Data published in the nanobody polyreactivity screen of Harvey et al. (2022).

Assay: yeast display, Sf9 membrane polyspecificity reagent, FACS + sequencing; frameworks hold sequencing errors
Outline: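 Genes from sorted yeast were amplified by colony PCR, read by MiSeq 2 × 250 sequencing and filtered on CDR length. These cells carried a synthetic nanobody library in Saccharomyces cerevisiae BJ5465 and were sorted by FACS into low and high (top ~1%) gates on anti-HA and streptavidin fluorescence. Polyreactivity is labelled according to the gate of origin.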

With “QVQLVESGGGLVQAGGSLRLSCAASGSTFLVYAMGWYRQAPGKERELVAVIDNGGDTYYADSVKGRFTISRDNAKNTVYLQMNSLKPEDTEVYYCAADMSYLGYWEYDSWGQGTQVTVSS” as the sequence, how does the “polyreactivity (PSR sort gate)” value read?
The value was “low polyreactivity”.

For “QVQLVESGGGLVQAGGSLRLSCAASGSTFLWNAMGWYRPAPGKERELVAAISYSGGSTYYADSVKGRFTISRDNAKNTVYLQMNSLKPEVTAVYYCAKEWFYDPYPPGYDYWGQGTQVTVSS”, which “polyreactivity (PSR sort gate)” value is on record?
Its value is “low polyreactivity”.

Which “polyreactivity (PSR sort gate)” value does the source give for “QVQLVESGGGLVQAGGSLRLSCAASGSTFLYNAMGWYRQAPGKERELVAAISTTGARTNYADSVKGRFTISRDNAKNTVYLQMNSLKPEDTAVYYCKDRRGHYWGQGTQVTVSS” here?
Its value is “high polyreactivity”.

For “QVQLVESGGGLVQAGGSLRLSCAASGSTFLYNAMGWYRQAPGKERELVAAISWSGGSTYYADSVKGRFTISRDNAKNTVYLQMNSLKPEDTAVYYCNALSVPDYDYWGQGTQVTVSS”, which “polyreactivity (PSR sort gate)” value is on record?
The value was “high polyreactivity”.

Which “polyreactivity (PSR sort gate)” value does the source give for “QVQLVESGGGLVQAGGSLRLSCAASGSTFLYNAMGWYRQAPGKERELVAAITIGGGSTYYADSVKGRFTISRDNAKNTVYLQMNSLKPEDTAVYYCNKGSYYWWDPGSTYIDDNWGQGTQVTVSS” here?
The value was “low polyreactivity”.

Which “polyreactivity (PSR sort gate)” value does the source give for “QVQLVESGGGLVQAGGSLRLSCAASGSTFLYNTMGWSRQAPGKERELVATITSRGDRTYYADSVKGRFPISRENAKNTVYLQMNSLKPEDTADYYCAALLYIRSVGYDYWGQGPQVTVSS” here?
The value was “low polyreactivity”.

For “QVQLVESGGGLVQAGGSLRLSCAASGSTFLYNTMGWYRQAPGKESELVATITSRGDRTYYADSVKGRFTISRDNAKNTVYLQMNSLKPEDTAVYYCNAYGGNYPQSYRYYYWGQGTQVTVSS”, which “polyreactivity (PSR sort gate)” value is on record?
The value was “low polyreactivity”.

Which “polyreactivity (PSR sort gate)” value does the source give for “QVQLVESGGGLVQAGGSLRLSCAASGSTFLYYAMGWYRQAPGKERELVARITTRVGRTYYADSVKGRFTISRDNAKNTVYLQMNSLKPEDTAVYYCATGGSKEMDYWGQGTQVTVSS” here?
The value was “high polyreactivity”.

For “QVQLVESGGGLVQAGGSLRLSCAASGSTFLYYAMGWYRQAPGKERELVASITGSGSNTYYADSVKGRFTISRDNAKNTVYLQMNSLKREDTAVYYCATDPQSDIPSWLWYWGEYDYWGHGTQVTVSS”, which “polyreactivity (PSR sort gate)” value is on record?
The value was “low polyreactivity”.

Which “polyreactivity (PSR sort gate)” value does the source give for “QVQLVESGGGLVQAGGSLRLSCAASGSTFLYYAMGWYRQAPGKERELVAVITGAGGTNYADSVKGRFTISRDNAKKTVYLQMNSLKPEDTAVYYCAARSPGTRWGDYDYWGQGTQVTVSS” here?
Its value is “low polyreactivity”.

With “QVQLVESGGGLVQAGGSLRLSCAASGSTFLYYTMGWYRQAPGKERELVAAITSGGDSNYADSVKGRFTISRDNAKNTVYLQMNSLKPEDTAVYYCNAEYTWSGTKIYTYKYDYWGQGTQVTVSS” as the sequence, how does the “polyreactivity (PSR sort gate)” value read?
The value was “low polyreactivity”.

With “QVQLVESGGGLVQAGGSLRLSCAASGSTFNFNAMGWYRQAPGKERELVAAISFSGGSTYYADSVKGRFTISRDNAKNTVYLQMNSLKPEDTAVYYCRPYSRGYGYWGQGTQVTVSS” as the sequence, how does the “polyreactivity (PSR sort gate)” value read?
The value was “high polyreactivity”.

For “QVQLVESGGGLVQAGGSLRLSCAASGSTFNGNDMGWYRQAPGKERELVATISDGGRTYYADSVKGRFTISRDNAKNTVYLQRNSLKPEDTAVYYCAAPVYVPRAWFYYWGQGTQVTVSS”, which “polyreactivity (PSR sort gate)” value is on record?
Its value is “low polyreactivity”.

Which “polyreactivity (PSR sort gate)” value does the source give for “QVQLVESGGGLVQAGGSLRLSCAASGSTFNGNVMGWYRQAPGKERDFVAGISKSGGTTYYADSVKGRFTISRDNAKNTVYLQMNSLKPEDTAVYYCAARGRVRYYPQYYYWGQGTQVTVSS” here?
Its value is “high polyreactivity”.

For “QVQLVESGGGLVQAGGSLRLSCAASGSTFNGYAMGWYRQAPGKERELVADISRGDRTNYADSVKGRFTISRDNAKNTVYLQMKSLKREDTAVYYCAKDWLTDDPDKDPSVEYDYWGQGTQVTVSS”, which “polyreactivity (PSR sort gate)” value is on record?
The value was “low polyreactivity”.

For “QVQLVESGGGLVQAGGSLRLSCAASGSTFNGYTMGCYRQAPGKEREFVATITFSDGSTYYADSVKGRFTISRDNAKNTVYLQMNSLKPEDTAVYYCNVDSPIGYDYWGQGTQVTVSS”, which “polyreactivity (PSR sort gate)” value is on record?
The value was “low polyreactivity”.

For “QVQLVESGGGLVQAGGSLRLSCAASGSTFNHYTMGWYIQAPGKERELVAAISSRGGGTYYADSVKGRFTISRDNAKNTVYLQMNSLKPEDTAVYYCAALISSGIRHSRDYWGQGTQVTVSS”, which “polyreactivity (PSR sort gate)” value is on record?
Its value is “high polyreactivity”.
